For the data set, the target named is T1, Ioc4 PWWP domain (Saccharomyces cerevisiae) (UniProt Q04213).
T1 sequence: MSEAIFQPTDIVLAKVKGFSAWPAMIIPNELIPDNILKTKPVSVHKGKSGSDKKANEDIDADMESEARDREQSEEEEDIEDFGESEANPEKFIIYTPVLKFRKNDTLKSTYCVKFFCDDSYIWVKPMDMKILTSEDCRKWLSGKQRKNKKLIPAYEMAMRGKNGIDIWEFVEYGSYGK
Kind of data set: EMSA. The following applies: H3K36me3; H3 tail 1-44 ligated to H3T45C; Xenopus laevis histones. Background: A gel shift assay detects complexes by their altered migration in electrophoresis.

NCP H3K36me3 returned a binding signal (fold higher affinity vs dsDNA) of 6.

Source of the values: publication doi:10.1101/2021.02.26.432832.
